Data taken from US20150218281A1 (Ablynx, published 2015).
Changes are numbered by the printed parent chain.

T1: biotinylated hOX40L (R&D Systems, biotinylated in house) (human, UniProt P23510 51-183, biotinylated with Sulfo-NHS-LC-Biotin, sites not stated)
T1 construct: same bought protein as m10, biotinylated; also called biotinylated OX40L
T1 sequence: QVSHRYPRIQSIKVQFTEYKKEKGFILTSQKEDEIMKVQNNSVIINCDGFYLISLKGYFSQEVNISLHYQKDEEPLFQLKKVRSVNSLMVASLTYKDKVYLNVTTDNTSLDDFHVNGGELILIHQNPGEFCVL

T2: full length human OX40L expressed on CHO cells (human, UniProt P23510 1-183)
T2 sequence: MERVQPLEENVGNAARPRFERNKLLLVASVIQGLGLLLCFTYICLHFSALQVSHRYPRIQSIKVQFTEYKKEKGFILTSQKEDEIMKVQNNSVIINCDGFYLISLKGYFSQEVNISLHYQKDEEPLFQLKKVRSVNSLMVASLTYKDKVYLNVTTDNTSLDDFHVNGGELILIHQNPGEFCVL

T3: recombinant human OX40L (extracellular domain, R&D Systems) (human, UniProt P23510 51-183)
T3 sequence: T1 sequence

B1: OX40L030 (VHH, not shown: small tags and cut ends)
VHH: DVQLVESGGGLVQAGGSLRLSCAASRSIGRLDRMGWYRHRTGEPRELVATITGGSSINYGDFVKGRFTISIDNAKNTVYLQMNNLKPEDTAVYYCNFNKYVTSRDTWGQGTQVTVSS
B2: OX40L054 (VHH, not shown: small tags and cut ends)
VHH: B1 VHH with A14P, I71R, N84S, K86R, Q112L
B3: OX40L053 (VHH, not shown: small tags and cut ends)
VHH: B1 VHH with A14P, A74S, N84S, K86R, Q112L
B4: OX40L055 (VHH, not shown: small tags and cut ends)
VHH: B1 VHH with A14P, I71R, A74S, K86R, Q112L
B5: OX40L075 (VHH, not shown: small tags and cut ends)
VHH: EVQLVESGGGLVQPGGSLRLSCAASGRSFSTYIMGWFRQAPGKEREFVATISRSGITTRSADSVKGRFTISRDNSKNTVYLQMNSLRPEDTAVYYCAAGPYVEQTLGLYQTLGPWDYWGQGTLVTVSS
B6: OX40L024 (VHH, not shown: small tags and cut ends)
VHH: EVQLVESGGGLVQPGGSLRLSCAASGRTFSSIYAKGWFRQAPGKEREFVAAISRSGRSTSYADSVKGRFTISRDNAKNTVYLQMNSLRPEDTAVYYCAAVGGATTVTASEWDYWGLGTLVTVSS
B7: OX40L028 (VHH, not shown: small tags and cut ends)
VHH: B6 VHH with E1D
B8: OX40L027 (VHH, not shown: small tags and cut ends)
VHH: B6 VHH with A76S, L116Q
B9: OX40L039 (VHH, not shown: small tags and cut ends)
VHH: B6 VHH with E1D, A76S, L116Q
B10: OX40L026 (VHH, not shown: small tags and cut ends)
VHH: B6 VHH with L116Q
B11: OX40L025 (VHH, not shown: small tags and cut ends)
VHH: B6 VHH with A76S
B12: anti-OX40L benchmark Fab (Fab, V domains shown)
VH: EVQLLESGGGLVQPGGSLRLSCAASGFTFNSYAMSWVRQAPGKGLEWVSIISGSGGFTYYADSVKGRFTISRDNSRTTLYLQMNSLRAEDTAVYYCAKDRLVAPGTFDYWGQGALVTVSS
VL: DIQMTQSPSSLSASVGDRVTITCRASQGISSWLAWYQQKPEKAPKSLIYAASSLQSGVPSRFSGSGSGTDFTLTISSLQPEDFATYYCQQYNSYPYTFGQGTKLEIKR
notes: papain digest of benchmark IgG; also called LC001 Fab
B13: OX40L048 (VHH, not shown: small tags and cut ends)
VHH: B1 VHH with A14P, G60A, I71R, A74S, N84S, K86R, Q112L
B14: OX40L041 (VHH, not shown: small tags and cut ends)
VHH: B1 VHH with A14P, R40A, I71R, A74S, N84S, K86R, Q112L
B15: OX40L050 (VHH, not shown: small tags and cut ends)
VHH: B1 VHH with A14P, G60A, F62S, I71R, A74S, N84S, K86R, Q112L
B16: OX40L043 (VHH, not shown: small tags and cut ends)
VHH: B1 VHH with A14P, E43K, I71R, A74S, N84S, K86R, Q112L
B17: OX40L047 (VHH, not shown: small tags and cut ends)
VHH: B1 VHH with A14P, R40A, T41P, E43K, I71R, A74S, N84S, K86R, Q112L
B18: OX40L046 (VHH, not shown: small tags and cut ends)
VHH: B1 VHH with A14P, T41P, E43K, I71R, A74S, N84S, K86R, Q112L
B19: benchmark OX40L blocking mAb (benchmark IgG) (antibody, V domains shown)
VH: B12 VH
VL: B12 VL
B20: OX40L044 (VHH, not shown: small tags and cut ends)
VHH: B1 VHH with A14P, R40A, T41P, I71R, A74S, N84S, K86R, Q112L
B21: OX40L049 (VHH, not shown: small tags and cut ends)
VHH: B1 VHH with A14P, F62S, I71R, A74S, N84S, K86R, Q112L
B22: OX40L045 (VHH, not shown: small tags and cut ends)
VHH: B1 VHH with A14P, R40A, E43K, I71R, A74S, N84S, K86R, Q112L
B23: OX40L042 (VHH, not shown: small tags and cut ends)
VHH: B1 VHH with A14P, T41P, I71R, A74S, N84S, K86R, Q112L

molecular target: T1, biotinylated hOX40L (R&D Systems, …); assay: hOX40L/hOX40 AlphaScreen, assay 3, heated at Tm+10 C
Procedure: (§1) Next, streptavidin donor beads were added and incubated for an additional 1 hour. Fluorescence was measured by reading plates on the EnVision Multilabel Plate Reader using an excitation wavelength of 680 nm and an emission wavelength of 520 nm.
(§2) In the TSA assay, Nanobodies were diluted to a concentration of 0.2 mg/ml and melting temperature (Tm) was determined at different pH by stepwise increase in temperature in presence of Sypro Orange, a dye that binds to […] residues that become exposed upon unfolding of the protein, using the Lightcycler (Roche) for detection. […] In SEC analysis, the Nanobodies were analyzed on a Phenomenex matrix to allow detection of multimers, aggregates or ‘stickyness’.

Row | IC50 | Binder
1 | 0.143 nM | B1
2 | 0.094 nM | B2
3 | 0.126 nM | B3
4 | 0.106 nM | B4

molecular target: T1, biotinylated hOX40L (R&D Systems, …); assay: hOX40L/hOX40 AlphaScreen, native sample
Procedure: as §1, §2

Row | IC50 | Binder
5 | 0.31 nM | B5
6 | 0.07 nM | B6
7 | 0.07 nM | B7
8 | 0.07 nM | B8
9 | 0.05 nM | B9
10 | 0.05 nM | B10
11 | 0.06 nM | B11

molecular target: T1, biotinylated hOX40L (R&D Systems, …); assay: AlphaScreen, 120 pM biotinylated hOX40L + 0.2 nM hOX40/Fc
Procedure: as §1

Row | IC50 | Binder
12 | 1.97 nM | B12

molecular target: T1, biotinylated hOX40L (R&D Systems, …); assay: hOX40L/hOX40 AlphaScreen, assay 2, native
Procedure: as §1, §2

Row | IC50 | Binder
13 | 0.314 nM | B13
14 | 0.22 nM | B14
15 | 0.145 nM | B15
16 | 0.134 nM | B16
17 | 0.735 nM | B17
18 | 0.256 nM | B18

molecular target: T2, full length human OX40L expressed on …; assay: cell-based or functional assay

Row | IC50, T-cell activation assay, donor 1 | IC50, T-cell activation assay, donor 2 | IC50, T-cell activation assay, donor 3 | IC50, T-cell activation assay, donor 4 | Binder
19 | 69.1 nM | 57.2 nM | 35.1 nM | 5.6 nM | B19
20 | 80.2 nM | 131 nM | 57.6 nM | 85.2 nM | B12

molecular target: T1, biotinylated hOX40L (R&D Systems, …); assay: hOX40L/hOX40 AlphaScreen, assay 2, heated at Tm+10 C
Procedure: as §1, §2

Row | IC50 | Binder
21 | 0.314 nM | B13
22 | 0.262 nM | B14
23 | 0.164 nM | B15
24 | 0.156 nM | B16
25 | 0.557 nM | B17
26 | 0.221 nM | B18

molecular target: T1, biotinylated hOX40L (R&D Systems, …); assay: hOX40L/hOX40 AlphaScreen, assay 3, native
Procedure: as §1, §2

Row | IC50 | Binder
27 | 0.143 nM | B1
28 | 0.079 nM | B2
29 | 0.118 nM | B3
30 | 0.091 nM | B4

molecular target: T3, recombinant human OX40L (extracellular …); assay: cell-based or functional assay

Row | IC50, T cell assay with rec. hOX40L | Binder
31 | 1.54 nM | B6
32 | 2.3 nM | B7
33 | 1.43 nM | B8
34 | 1.6 nM | B9
35 | 2.46 nM | B10
36 | 1.15 nM | B11

molecular target: T1, biotinylated hOX40L (R&D Systems, …); assay: hOX40L/hOX40 AlphaScreen, assay 1, native
Procedure: Next, streptavidin donor beads were added and incubated for an additional 1 hour. Fluorescence was measured by reading plates on the EnVision Multilabel Plate Reader using an excitation wavelength of 680 nm and an emission wavelength of 520 nm. […]

Row | IC50 | Binder
37 | 0.076 nM | B1
38 | 0.093 nM | B13
39 | 0.127 nM | B14
40 | 0.065 nM | B20
41 | 0.035 nM | B21
42 | 0.046 nM | B15
43 | 0.101 nM | B16
44 | 0.269 nM | B17
45 | 0.084 nM | B18
46 | 0.152 nM | B22
47 | 0.057 nM | B23

molecular target: T1, biotinylated hOX40L (R&D Systems, …); assay: hOX40L/hOX40 AlphaScreen, sample heated 1 min at Tm+10 C
Procedure: as §1, §2

Row | IC50 | Binder
48 | 1.9 nM | B5
49 | 0.07 nM | B6
50 | 0.07 nM | B7
51 | 0.07 nM | B8
52 | 0.05 nM | B9
53 | 0.06 nM | B10
54 | 0.05 nM | B11

molecular target: T2, full length human OX40L expressed on …; assay: competition FACS, 3.1 nM hOX40/Fc on hOX40L expressing cells

Row | IC50 | Binder
55 | 217 nM | B12

molecular target: T3, recombinant human OX40L (extracellular …); assay: cell-based or functional assay; remark: another data set of the same source

Row | IC50, T cell assay with rec. hOX40L | Binder
56 | 11 nM | B1
57 | 32 nM | B13
58 | 64 nM | B14
59 | 76 nM | B20
60 | 12 nM | B21
61 | 43 nM | B15
62 | 29 nM | B16
63 | 126 nM | B17
64 | 57 nM | B18
65 | 133 nM | B22
66 | 18 nM | B23

molecular target: T2, full length human OX40L expressed on …; assay: cell-based or functional assay; remark: another data set of the same source

Row | IC50, T-cell activation assay, donor 10, +10% FBS | IC50, T-cell activation assay, donor 10, +10% HS | IC50, T-cell activation assay, donor 11, +10% FBS | IC50, T-cell activation assay, donor 11, +10% HS | IC50, T-cell activation assay, donor 12, +10% FBS | IC50, T-cell activation assay, donor 12, +10% HS | IC50, T-cell activation assay, donor 13, +10% FBS | IC50, T-cell activation assay, donor 13, +10% HS | Binder
67 | 203 nM | 161 nM | 61.2 nM | 30.2 nM | 22.1 nM | 42.9 nM | 84.4 nM | 120 nM | B19

molecular target: T2, full length human OX40L expressed on …; assay: cell-based or functional assay; remark: another data set of the same source

Row | IC50, IL4 production, T-cell activation assay, donor 1 | IC50, IL4 production, T-cell activation assay, donor 2 | IC50, IL4 production, T-cell activation assay, donor 3 | IC50, IL4 production, T-cell activation assay, donor 4 | Binder
68 | 80 nM | 131 nM | 58 nM | 85 nM | B12
